Assay results taken from patent US20140274766A1, “METHODS OF USING F-SPONDIN AS A BIOMARKER FOR CARTILAGE DEGENERATIVE CONDITIONS AND BONE DISEASES” (priority 2009, published 2014).

Tested on: human chondrocytes
Test: PGE2 production by human chondrocytes (RIA), F-spondin supernatant and blocking antibodies
Type: cell-based
Conditions: supernatants from F-spondin transfected cells, 24 h, vs control vector supernatants
Method: FIG. 11: Blocking of F-spondin function by antibody: Human chondrocytes were grown in monolayer culture. The cells were adapted to serum free medium conditions for 24 h before treating with either F-spondin transfected supernatant (150 uL), LM609 (αvβ3) or R1 (F-spondin blocking antibody) for 24 h and the culture supernatant was collected for PGE2 estimation by RIA. The data is representative of one of the three experiments. F-spondin induced production of PGE2 was inhibited by R1 (TSR 3-6 blocking antibody).
F-spondin consists of reelin, spondin and six TSR domains; these domains may activate various cellular functions by binding to different receptors. Previously, Terai et al (2001) have shown that F-spondin inhibits angiogenesis in endothelial cells by binding to αvβ3 (Terai Y, Abe M, Miyamoto K, Koike M, Yamasaki M, Ueda M, et al. Vascular smooth muscle cell growth-promoting factor/F-spondin inhibits angiogenesis via the blockade of integrin alphavbeta3 on vascular endothelial cells. J Cell Physiol 2001; 188(3):394-402). […] Accordingly, human chondrocytes were incubated with the supernatant from F-spondin transfected cell culture for 24 h and the levels of PGE2 were measured under various conditions (FIG. 11). […]

B1: F-spondin: 110 kDa, secreted, heparin-binding extracellular matrix glycoprotein; used as recombinant protein (R&D systems) or transfected-cell supernatant (protein, UniProt Q9HCB6 29-807, looked up)
Spondin-1: FSDETLDKVPKSEGYCSRILRAQGTRREGYTEFSLRVEGDPDFYKPGTSYRVTLSAAPPSYFRGFTLIALRENREGDKEEDHAGTFQIIDEEETQFMSNCPVAVTESTPRRRTRIQVFWIAPPAGTGCVILKASIVQKRIIYFQDEGSLTKKLCEQDSTFDGVTDKPILDCCACGTAKYRLTFYGNWSEKTHPKDYPRRANHWSAIIGGSHSKNYVLWEYGGYASEGVKQVAELGSPVKMEEEIRQQSDEVLTVIKAKAQWPAWQPLNVRAAPSAEFSVDRTRHLMSFLTMMGPSPDWNVGLSAEDLCTKECGWVQKVVQDLIPWDAGTDSGVTYESPNKPTIPQEKIRPLTSLDHPQSPFYDPEGGSITQVARVVIERIARKGEQCNIVPDNVDDIVADLAPEEKDEDDTPETCIYSNWSPWSACSSSTCDKGKRMRQRMLKAQLDLSVPCPDTQDFQPCMGPGCSDEDGSTCTMSEWITWSPCSISCGMGMRSRERYVKQFPEDGSVCTLPTEETEKCTVNEECSPSSCLMTEWGEWDECSATCGMGMKKRHRMIKMNPADGSMCKAETSQAEKCMMPECHTIPCLLSPWSEWSDCSVTCGKGMRTRQRMLKSLAELGDCNEDLEQVEKCMLPECPIDCELTEWSQWSECNKSCGKGHVIRTRMIQMEPQFGGAPCPETVQRKKCRIRKCLRNPSIQKLRWREARESRRSEQLKEESEGEQFPGCRMRPWTAWSECTKLCGGGIQERYMTVKKRFKSSQFTSCKDKKEIRACNVHPC
Question: B1 was tested. Which PGE2 production did it give?
Answer: significantly increased
